Numbering of substitutions follows the chain as printed.
B1: anti-EphA2 antibody EA5 (antibody, V domains shown)
VH: EVQLQQSGPELVKTGASVKISCKASGYSFTGYYMHWVKQSHGKSLEWIGYISCYNGVTSYNQKFKGKATFTVDTSSSTAYMQFNSLTSEDSAVYYCARSHAMDYWGQGTSVTVSS
VL: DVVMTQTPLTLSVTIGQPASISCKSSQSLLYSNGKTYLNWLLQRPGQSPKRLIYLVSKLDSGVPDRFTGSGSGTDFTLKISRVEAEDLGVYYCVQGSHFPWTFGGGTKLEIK
notes: Murine monoclonal antibody; Hybridoma ATCC PTA-4381; also called mAb EA5
B2: anti-EphA2 antibody EA2 (antibody, V domains shown)
VH: DVKLVESGGGLVKPGGSLKLSCAASGFTFSSYTMSWVRQTPEKRLEWVATISSGGTYTYYPDSVKGRFTISRDNAKNTLYLQMSSLKSEDTAMYYCTREAIFTYWGQGTLVTVSA
VL: DIKMTQSPSSMYASLGERVTITCKASQDINNYLSWFQQKPGKSPKTLIYRANRLVDGVPSRFSGSGSGQDYSLTISSLEYEDMGIYYCLKYDEFPYTFGGGTKLEIK
notes: Murine monoclonal antibody; Hybridoma ATCC PTA-4380; also called mAb EA2
B3: G5 (antibody, V domains shown)
VH: QMQLVQSGPEVKKPGTSVKVSCKASGFTFTDYSMNWVRQARGQRLEWIGFIRNKANDYTTEYSASVKGRVTITRDMSTSTAYMELSSLRSEDTAVYYCARYPRYHAMDSWGQGTSVTVSS
VL: DIQMTQSPSSLSASVGDRVTITCRASQSISNNLHWYQQKPGKAPKLLIKYVFQSISGVPSRFSGSGSGTDFTFTISSLQPEDFATYYCQQSNSWPLTFGGGTKVEIK
notes: also called clone G5; anti-EphA2 antibody G5
B4: Affinity optimized 3F2 (antibody, human IgG1, V domains shown)
VH: EVQLVESGGGVVRPGGSLRLSCAASGFTVSDYSMNWVRQAPGKGLEWIGFIRNKANAYTTEYSASVKGRFTISRDDSKNTLYLQMNSLKTEDTAVYYCTTYPRYHAMDSWGQGTMVTVSS
VL: AIQLTQSPSSLSASVGDRVTITCRASQSISNNLHWYLQKPGQSPQLLIYYGFQSISGVPSRFSGSGSGTDFTLTISSLQPEDFATYYCQQANSWPLTFGGGTKLEIK
notes: human IgG1 with human kappa chain
B5: VH VL 2A4 scFv (scFv)
scFv: QVQLLESGGGLVQPGGSLRLSCAASGFTFSSYTMSWVRQAPGQALEWMGTISSRGTYTYYPDSVKGRFTISRDNAKNSLYLQMNSLRAEDTAVYYCAREAIFTHWGRGTLVTVSSGGGGSGGGGSGGGGSDIQLTQSPSSLSASVGDRVTITCKASQDINNYHSWYQQKPGQAPRLLIYRANRLVDGVPDRFSGSGYGTDFTLTINNIESEDAAYYFCLKYNVFPYTFGQGTKVEIK
notes: FLAG and His tags as for 4H5 scFv
B6: VH VL 2E7 scFv (scFv)
scFv: B5 scFv with H163G, V223R
notes: as for B5
B7: 4H5 VH-VL scFv humanized clone (scFv)
scFv: B5 scFv with R54G, H104Y, H163L, N222D
notes: Expressed with a C-terminal FLAG tag and His tag; also called 4H5 scFv; scFv 4H5
B8: VH VL 12E2 scFv (scFv)
scFv: B5 scFv with H104Y, H163L, V185F, N222D, V223R
notes: as for B5
B9: parental anti-EphA2 scFv EA2 (scFv)
scFv: DVKLVESGGGLVKPGGSLKLSCAASGFTFSSYTMSWVRQTPEKRLEWVATISSGGTYTYYPDSVKGRFTISRDNAKNTLYLQMSSLKSEDTAMYYCTREAIFTYWGQGTLVTVSAGGGGSGGGGSGGGGSDIKMTQSPSSMYASLGERVTITCKASQDINNYLSWFQQKPGKSPKTLIYRANRLVDGVPSRFSGSGSGQDYSLTISSLEYEDMGIYYCLKYDEFPYTFGGGTKLEIK
notes: The murine EA2 variable regions were cloned in the same manner as the 4H5 scFv (VH, linker, VL, FLAG, His); also called EA2 scFv; not shown: C-terminal FLAG tag and His tag
B10: Chimaeric B 233 (antibody, V domains shown)
VH: EVKLVESGGGLVQPGGSLSLSCAASGFTFTDYSMNWVRQPPGKALEWLGFIRNKANDYTTEYSASVKGRFTISRDNSQSILYLQMNALRAEDSATYYCVRYPRYHAMDSWGQGTSVTVSS
VL: DIVLTQSPATLSVTPGDSVNLSCRASQSISNNLHWYQQKSHESPRLLIKYVFQSISGIPSRFSGSGSGTDFTLSINSVETEDFGMYFCQQSNSWPLTFGAGTKLELK
notes: Soluble IgG with the B233 variable regions; also called chimaeric mAb B233; chimeric B233

target: T1, human EphA2 (human, UniProt P29317 24-976); assay: flow cytometry on A549 cells, antibody 10 µg/ml, PE anti-mouse Fc gamma; control: irrelevant antibody of the same isotype [A]
T1 construct: whole, on cells; also called EphA2 receptor
Protocol: FIGS. 10A-10B: Flow cytometric binding analysis of anti-EphA2 parental antibodies. EphA2 expressing A549 cells (human lung carcinoma cell line) (A), and MDA-MB-231 cells (human breast cancer) (B) were used. Cells (200,000) were incubated with 10 μg/ml of the respective antibody for 30 min on ice. The cells were subsequently washed twice in PBS. The binding of the primary antibody was detected via an phycoerythrin-conjugated murine Fc-gamma specific antibody (Dianova, order no. 115-116-071) diluted 1:100 in 50 μl PBS with 2% FCS. As negative control, an irrelevant antibody with the same isotype was used (thin line). Cells were analyzed by flow cytometry on a FACS-Calibur (Becton Dickinson, Heidelberg). […] The binding capabilities of the three different antibodies are shown in a histogram overlay (4th peak from left=B322 antibody; 3rd peak from left=EA2 antibody; 2nd peak from left=EA5 antibody; far left peak—control).
A flow cytometric analysis was performed to estimate the binding strength of the anti-EphA2 parental monoclonal antibodies […], EA2 and EA5 (FIG. 10). […] The binding of the primary antibody was detected via an phycoerythrin conjugated murine Fc-gamma specific antibody (Dianova, order no. 115-116-071) diluted 1:100 in […] PBS with 2% FCS. […] Cells were analyzed by flow cytometry on a FACS-Calibur (Becton Dickinson, Heidelberg).

binding result	Binder
binds	B1
binds	B2

target: T1, human EphA2; assay: immunofluorescence microscopy of fixed monolayers of MCF-10A and MDA-MB-231 cells
Protocol: Monolayers of MCF-10A or MDA-MB-231 cells were cultured atop glass coverslips for at least 24 h at 37° C. before staining. Cell monolayers were fixed in 4% paraformaldehyde (2 min, 25° C.) before incubation with primary antibody (clone G5 (negative control), EA5, EA2, 3F2, or 4H5) for 30 min followed by subsequent staining with AlexaFluor 488-conjugated goat anti-mouse IgG or AlexaFluor 488-conjugated goat anti-human IgG (The Jackson Laboratory). Cells were fixed for analyses by immunofluorescence microscopy. […] The amino acid sequence of the VL and VH domains of the G5 antibody are depicted in FIG. 42.

binding result	Binder
binds	B3

target: T2, cynomolgus EphA2 (cynomolgus, UniProt Q1KL86 24-976); assay: flow cytometry on cynomolgus EphA2 transfected CHO cells, antibody 10 µg/ml, AlexaFluor 488 anti-mouse or anti-human IgG (H+L)
T2 construct: whole, on cells; also called cynomolgus EphA2 expressed on transfected CHO cells
T2 sequence (Q1KL86 24-976): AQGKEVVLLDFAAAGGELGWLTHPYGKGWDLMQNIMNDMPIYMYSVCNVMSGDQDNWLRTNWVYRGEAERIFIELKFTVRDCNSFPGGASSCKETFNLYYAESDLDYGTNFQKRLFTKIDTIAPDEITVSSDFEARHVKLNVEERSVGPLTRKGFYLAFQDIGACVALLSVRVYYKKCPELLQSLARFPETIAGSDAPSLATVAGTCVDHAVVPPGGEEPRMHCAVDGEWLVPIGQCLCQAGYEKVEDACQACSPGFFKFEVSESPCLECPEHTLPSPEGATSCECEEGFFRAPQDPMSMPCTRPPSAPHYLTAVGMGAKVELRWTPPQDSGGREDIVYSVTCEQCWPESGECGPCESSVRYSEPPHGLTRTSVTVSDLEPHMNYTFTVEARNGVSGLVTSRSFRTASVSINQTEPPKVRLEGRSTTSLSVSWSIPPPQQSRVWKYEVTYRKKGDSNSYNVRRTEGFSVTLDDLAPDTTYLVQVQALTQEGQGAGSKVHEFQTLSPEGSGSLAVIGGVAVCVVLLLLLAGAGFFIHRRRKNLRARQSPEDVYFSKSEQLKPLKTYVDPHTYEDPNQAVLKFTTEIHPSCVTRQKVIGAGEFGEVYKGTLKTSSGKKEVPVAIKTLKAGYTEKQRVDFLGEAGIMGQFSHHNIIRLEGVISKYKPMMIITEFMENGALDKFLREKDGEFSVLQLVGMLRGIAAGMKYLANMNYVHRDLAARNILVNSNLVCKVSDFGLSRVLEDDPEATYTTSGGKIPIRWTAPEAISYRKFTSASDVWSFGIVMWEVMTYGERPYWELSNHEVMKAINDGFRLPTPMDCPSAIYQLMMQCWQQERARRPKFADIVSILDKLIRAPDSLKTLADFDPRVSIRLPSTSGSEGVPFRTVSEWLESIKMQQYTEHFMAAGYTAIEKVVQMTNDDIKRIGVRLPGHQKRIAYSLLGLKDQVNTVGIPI
Protocol: Subconfluent monolayers of SW480 colon carcinoma or cynomolgus EphA2 transfected CHO cells were quickly trypsinized, washed, counted, plated into 96-well round bottom plates, and stained with 10 μg/ml of a negative control antibody (R347), the anti-human EphA2 murine antibody, EA2 (Coffman 2003), or humanized antibodies, 3F2 and 4H5. Cells were resuspended in AlexaFluor 488 anti-mouse or anti-human IgG H+L (Invitrogen) and then analyzed by flow cytometry using a FACSCalibur (Becton Dickinson).

binding result	Binder
binds	B2
binds	B4

target: T3, Human EphA2-Fc fusion protein (human, UniProt P29317 24-537); assay: SPR (BIAcore 3000), purified monomeric scFv, human EphA2
T3 construct: extracellular domain; Expressed in HEK 293 cells; Biotinylated in the capture ELISAs; also called soluble EphA2 Fc fusion protein; not shown: Fc portion of a human IgG1
Protocol: (§1) 2A4, 2E7 and 12E2 as well as parental EA2 scFv and humanized 4H5 scFv were induced for expression in E. coli in a 1 L culture volume. The supernatants containing soluble, secreted scFv fragments were spun to remove cellular debris then passed over an anti-FLAG column (Sigma) to purify and isolate the variant proteins. The purified affinity optimized variants were analyzed by surface plasmon resonance detection using a BIAcore 3000 instrument (Pharmacia Biosensor, Uppsala, Sweden). […] For affinity measurement results, see the table in section 6.6, infra.

Kd [nM]	koff [s⁻¹]	kon [M⁻¹ s⁻¹]	Binder
5.7	0.0037	650000	B5
7.3	0.0041	560000	B6
180	0.018	100000	B7
7.8	0.0041	520000	B8
870	0.03	34000	B9

target: T3, Human EphA2-Fc fusion protein; assay: SPR (BIAcore 3000), KD against that of 4H5 scFv
Protocol: as §1

Fold Difference (vs 4H5) [fold]	Binder
32	B5
25	B6
1	B7
23	B8
-4.8	B9

target: T3, Human EphA2-Fc fusion protein; assay: SPR (Biacore 3000), soluble IgG on immobilized EphA2-Fc

Kd [nM]	koff [s⁻¹]	kon [M⁻¹ s⁻¹]	Binder
0.3	8e-05	240000	B10
0.671	0.000127	189000	B4

— patent US20080044413A1 (published 2008)
